Experimental data published in PMC11920795.

Molecular target: Pol epsilon WT (holoenzyme) (Saccharomyces cerevisiae, UniProt P21951;P24482;P27344;Q04603 1-2222;1-689;1-201;1-196)
Assay: EMSA

Chain of Pol epsilon WT (holoenzyme) (P21951 whole entry, chain 1 of 4): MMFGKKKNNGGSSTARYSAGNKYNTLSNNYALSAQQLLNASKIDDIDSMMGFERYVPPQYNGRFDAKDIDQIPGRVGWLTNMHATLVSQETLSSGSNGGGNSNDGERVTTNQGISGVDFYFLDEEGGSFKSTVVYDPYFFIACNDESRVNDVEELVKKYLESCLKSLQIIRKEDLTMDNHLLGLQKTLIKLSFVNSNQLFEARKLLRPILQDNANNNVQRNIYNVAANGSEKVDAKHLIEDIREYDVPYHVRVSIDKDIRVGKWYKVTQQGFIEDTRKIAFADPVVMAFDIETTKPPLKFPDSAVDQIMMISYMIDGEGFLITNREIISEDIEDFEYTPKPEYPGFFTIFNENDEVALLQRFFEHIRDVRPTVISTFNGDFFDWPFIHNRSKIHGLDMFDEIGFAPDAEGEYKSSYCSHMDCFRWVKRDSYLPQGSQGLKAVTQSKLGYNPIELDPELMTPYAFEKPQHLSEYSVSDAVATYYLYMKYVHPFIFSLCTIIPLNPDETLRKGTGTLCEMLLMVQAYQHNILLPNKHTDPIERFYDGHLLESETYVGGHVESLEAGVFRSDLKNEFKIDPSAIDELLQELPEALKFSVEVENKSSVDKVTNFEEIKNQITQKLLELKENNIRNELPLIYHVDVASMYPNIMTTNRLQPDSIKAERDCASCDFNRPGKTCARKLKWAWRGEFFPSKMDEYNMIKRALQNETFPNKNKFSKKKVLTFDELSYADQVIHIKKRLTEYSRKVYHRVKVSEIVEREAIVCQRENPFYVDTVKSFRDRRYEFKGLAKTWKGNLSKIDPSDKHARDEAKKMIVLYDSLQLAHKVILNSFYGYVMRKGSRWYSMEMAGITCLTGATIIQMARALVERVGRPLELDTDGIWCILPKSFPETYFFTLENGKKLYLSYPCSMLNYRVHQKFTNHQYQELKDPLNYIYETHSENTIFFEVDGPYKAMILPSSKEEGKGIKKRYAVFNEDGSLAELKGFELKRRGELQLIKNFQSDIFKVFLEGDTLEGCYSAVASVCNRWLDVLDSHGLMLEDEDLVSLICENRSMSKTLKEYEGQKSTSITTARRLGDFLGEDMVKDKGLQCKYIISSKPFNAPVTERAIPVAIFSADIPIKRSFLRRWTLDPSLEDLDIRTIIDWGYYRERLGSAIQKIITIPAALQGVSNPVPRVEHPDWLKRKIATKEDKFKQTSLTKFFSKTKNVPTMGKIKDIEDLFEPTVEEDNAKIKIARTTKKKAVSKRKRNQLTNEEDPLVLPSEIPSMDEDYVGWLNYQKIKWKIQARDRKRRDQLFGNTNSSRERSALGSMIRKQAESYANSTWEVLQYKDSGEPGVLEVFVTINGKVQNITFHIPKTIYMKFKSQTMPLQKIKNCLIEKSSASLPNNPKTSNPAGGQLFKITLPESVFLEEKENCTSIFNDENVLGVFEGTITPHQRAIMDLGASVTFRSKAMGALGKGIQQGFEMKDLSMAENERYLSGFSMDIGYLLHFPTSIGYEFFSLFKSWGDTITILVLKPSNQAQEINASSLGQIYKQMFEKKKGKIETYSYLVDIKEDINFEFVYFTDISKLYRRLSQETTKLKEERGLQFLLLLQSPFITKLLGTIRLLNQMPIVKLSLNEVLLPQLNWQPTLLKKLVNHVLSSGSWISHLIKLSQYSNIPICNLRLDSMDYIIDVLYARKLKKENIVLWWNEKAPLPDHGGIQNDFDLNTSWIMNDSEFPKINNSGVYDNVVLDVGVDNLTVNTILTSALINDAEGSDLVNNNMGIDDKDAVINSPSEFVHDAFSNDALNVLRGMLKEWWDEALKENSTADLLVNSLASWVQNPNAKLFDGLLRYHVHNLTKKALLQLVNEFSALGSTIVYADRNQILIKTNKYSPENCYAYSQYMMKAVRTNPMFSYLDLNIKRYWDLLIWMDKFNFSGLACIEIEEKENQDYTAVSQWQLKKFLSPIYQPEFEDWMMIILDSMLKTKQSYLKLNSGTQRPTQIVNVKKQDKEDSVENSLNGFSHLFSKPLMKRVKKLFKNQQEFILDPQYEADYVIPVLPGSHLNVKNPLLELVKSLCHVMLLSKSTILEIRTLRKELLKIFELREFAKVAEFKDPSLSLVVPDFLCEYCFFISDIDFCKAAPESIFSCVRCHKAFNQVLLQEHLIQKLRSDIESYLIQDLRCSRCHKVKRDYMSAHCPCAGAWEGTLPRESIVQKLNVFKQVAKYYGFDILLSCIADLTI
Chain of Pol epsilon WT (holoenzyme) (P24482 whole entry, chain 2 of 4): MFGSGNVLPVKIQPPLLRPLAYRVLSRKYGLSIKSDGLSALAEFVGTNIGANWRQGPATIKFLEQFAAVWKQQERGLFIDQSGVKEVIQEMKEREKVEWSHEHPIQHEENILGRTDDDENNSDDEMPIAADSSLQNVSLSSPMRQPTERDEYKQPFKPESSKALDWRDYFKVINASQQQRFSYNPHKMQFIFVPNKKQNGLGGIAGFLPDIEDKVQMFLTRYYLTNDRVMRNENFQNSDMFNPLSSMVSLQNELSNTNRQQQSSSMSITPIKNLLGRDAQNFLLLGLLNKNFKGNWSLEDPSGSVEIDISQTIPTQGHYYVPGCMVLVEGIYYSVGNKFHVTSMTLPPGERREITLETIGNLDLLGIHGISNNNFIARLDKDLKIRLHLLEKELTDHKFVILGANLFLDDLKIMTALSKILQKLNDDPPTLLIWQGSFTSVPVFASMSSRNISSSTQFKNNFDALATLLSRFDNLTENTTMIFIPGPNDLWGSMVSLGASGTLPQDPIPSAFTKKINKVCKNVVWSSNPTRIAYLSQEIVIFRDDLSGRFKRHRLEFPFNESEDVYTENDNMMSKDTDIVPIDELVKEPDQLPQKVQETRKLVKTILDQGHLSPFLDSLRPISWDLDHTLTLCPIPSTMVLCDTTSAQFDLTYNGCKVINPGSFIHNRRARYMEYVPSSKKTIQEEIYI
Chain of Pol epsilon WT (holoenzyme) (P27344 whole entry, chain 3 of 4): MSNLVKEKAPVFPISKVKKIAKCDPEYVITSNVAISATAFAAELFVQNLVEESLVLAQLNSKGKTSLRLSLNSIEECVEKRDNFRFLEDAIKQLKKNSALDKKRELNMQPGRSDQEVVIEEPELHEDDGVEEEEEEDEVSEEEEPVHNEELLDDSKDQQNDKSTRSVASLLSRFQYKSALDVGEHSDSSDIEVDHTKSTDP
Chain of Pol epsilon WT (holoenzyme) (Q04603 whole entry, chain 4 of 4): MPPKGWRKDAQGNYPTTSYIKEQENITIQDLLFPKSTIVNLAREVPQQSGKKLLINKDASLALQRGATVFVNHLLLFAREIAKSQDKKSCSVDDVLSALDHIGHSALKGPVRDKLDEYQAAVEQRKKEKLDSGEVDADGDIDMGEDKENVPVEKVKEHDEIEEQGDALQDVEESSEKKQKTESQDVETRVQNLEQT

B1: P50/T80-1 (mixed)
DNA 1: TGGAACTTTGTACGTCCAAAATTGAATGACTTGGCCAACTACACTAAGTT
DNA 2: GGATTACGAAACGAAGCACATTAGCCCTGGAACTTAGTGTAGTTGGCCAAGTCATTCAATTTTGGACGTACAAAGTTCCA
B1: binds.
